Measurements published in the nanobody polyreactivity screen of Harvey et al. (2022).

Test: yeast display, Sf9 membrane polyspecificity reagent, FACS + sequencing; frameworks hold sequencing errors
Outline: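 Sorting gates, low and high (top ~1%), were placed on anti-HA fluorescence to track expression and on streptavidin fluorescence to track reagent binding. A clone's polyreactivity label is taken from the gate it came out of. The reagent was 10% biotinylated, detergent-solubilized Sf9 membrane, applied for 1 hour at 4 °C to galactose-induced yeast display cells.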

Sequence	polyreactivity (PSR sort gate)
QVQLVESGGGLVQAGCSLRLSCAASGITFNFYAMGWYRQAPGKERELVAAITSSGASTNYADSVKGRFTISRDNAKNTVYLQMNSLYPEDTAVYYCNAQRSRHSLYPVNELYYWGQGTQVTVTS	low polyreactivity
QVQLVESGGGLVQAGCSLRLSCAASGLIFYTYAMGWYRQAPGKEREFVAAISRRGGSTYYADSVKGRFTISRDNAKNTVYLQMNSLKPEYTAVYYCNARYTYPRPYEEYYYWGQGTQVTVSS	high polyreactivity
QVQLVESGGGLVQAGCSLRLSCAASGLTFYHYTMGWYRQEPGKERDLVAAISRRGGYTYYADSVKGRFTISRDNAKNTVYLQMNSLKPEDTAVYYCAARALRYSRDFDYWGQGTQVTVSS	high polyreactivity
QVQLVESGGGLVQAGCSLRLSCAASGNSFPSYAMGWYRQAPGKARELVAAITTGGRTYYADSVKGRFTISRDNAKNTVYLQMNSLNPEDTAVYYCAADWGVRYPWYRYYYWGQATQVTVSS	high polyreactivity
QVQLVESGGGLVQAGCSLRLSCAASGRIFDNYVMGWYRQAPGQERELVAAISSGGGTYYADSVTGRFTISRDNAKNTVYLQMNSLKPEDTAVYYCAKRRVYDRSFGRYDYWGQGTQVTVSS	low polyreactivity
QVQLVESGGGLVQAGCSLRLSCAASGRIFGGYAMGWYRQAPGKERELVAAISSGGNTKYADSVKGRFTISRDNAKNTVYLQMNSLKPEDSAVYYCAAKFAQPDYRYDYWGQGTQVSVSS	high polyreactivity
QVQLVESGGGLVQAGCSLRLSCAASGRIFRYYAMGWYRQAPGKERELVAAISWSGGSTYYADSVKGRFTISRDNAKNTVYLQMNSLKPEYTAVYYCAARYSLKGGRYDYWGQGTQVTVSS	high polyreactivity
QVQLVESGGGLVQAGCSLRLSCAASGRIFYRNAMGWYRQAPGKERELVAGITRGGSTNYADSVKGRFTISRDNAKNNVYLQLNSLKPEDTAVYYCAKAIPAKFYSEAGYDYWGQGTQVTVSS	low polyreactivity
QVQLVESGGGLVQAGCSLRLSCAASGRIFYYYAMGWYRQAPGKERELVADITWSGGSTYYADSVKGRFTISRDNAKNTVYLQMNSLKPEDTAVYYCNAVYFNYLLEYDYWGQGTQVTVSS	high polyreactivity
QVQLVESGGGLVQAGCSLRLSCAASGRTDFYTMGWYRQAPGKEMELVAAITSTGRTYYADSVKGRFTISRDNAKNTVYLKMNSLKPEDTAVYFCAAVWRYKGLLLPSYYYWGQGTQVTVSS	high polyreactivity
QVQLVESGGGLVQAGCSLRLSCAASGRTIAYNAMGWYRQAPGKERELVAAISWSGGSTYYADSVKGRFTISRDNAKNTVYLQMNSMKPEDSAVYYCAKRFGQYRYPYDYWGQGNQVTVSS	high polyreactivity
QVQLVESGGGLVQAGCSLRLSCAASGSIFAYYDMGWYRQAPGKERELVAAITTRDDDTYYADSVKGRFTISRDNAKNTVYLLLNSLKPEDTAVYYCAAAWWDYGNGKYDYWGQGTQVTVSS	low polyreactivity
QVQLVESGGGLVQAGCSLRLSCAASGSIFGYNDMGWNRQAPGKERELVATITWGGGRTRYADSVKGRFTISRDNAKNTVYLQINCLKPEDIAVYYCAADKRSYSYVRPPRNHEDYWGQGSQVTVSS	low polyreactivity
QVQLVESGGGLVQAGCSLRLSCAASGSIFSSYAMGWYRQAPGKERELVAAITGSGGSTDYADSVKGRFTISRDNAKNTVYLQMNSLKPEDTAVYYCAARPFWPGNSYYYRYYYWGQGTQVTVSS	low polyreactivity
QVQLVESGGGLVQAGCSLRLSCAASGSNFEENAMGWYRQAPGKESELVAAITIGGRTNYADSVKGRFTISRDNAKNTVYLQMNSLKPEDTAVYYCAADLSSNKYWRFWTRYYYWGQGTQVTVSS	low polyreactivity
QVQLVESGGGLVQAGCSLRLSCAASGSTFSYIAMGWYRQAPGKERELVAAITSGSSTNYADSVKGRFTISRDNAKYTVYLQMNSLKPEDTAVSYCAADGYQDKYYWLETWVGYWGHGTQVTVSS	low polyreactivity

Sequence	polyreactivity (PSR sort gate)
QVQLVESGGGLVQAGCSLRLSCAASGSTIYTYTMGWYRQAPGKERELVAAISSSGGDTYYADSVKGRFTISRDNAKNTVYLQMNSLKPEDTAVYYWDALGAFPSLEFDYWGQGTHVTVSS	low polyreactivity
QVQLVESGGGLVQAGCSLRLSCAASGSTLFWYDMGWYRQAPGKERELVAAINWTGGSTYADSVKGRFTISRDNAKNTVYLQMNSLKPEDTAVYYCNADEYWASGYDPYDYWGQGTQVTVSS	low polyreactivity
QVQLVESGGGLVQAGCSLRLSCAASGSTSAYYVMGWNRQAPGKARELVAAIDFSGDSTYYADSVKGRFTISRDNAKNTVYLQMNSLKPEDTAVYYCAAELFYYSSLVTYEYWGQGTQVTVSS	high polyreactivity
QVQLVESGGGLVQAGCSLRLSCDASGSTFNWNAMGRYRQAPGKERELVAVIRRNGATTNYADSVKGRFTISRDNAKITVYLQMNSLKPEDTAVYYCAVAKWQPRRRKYYYWGQGTQVTVSS	high polyreactivity
QVQLVESGGGLVQAGCSLRLSSAASGFTFAYYVMGWYRQAPGKERELVAAISISGGRTYYADSVKGRFTISRDNEKNSVYLQMNRLKPEETAVYYCAADRRTDGHDYWGQGSQVTVSS	high polyreactivity
QVQLVESGGGLVQAGCSLRLSWAASGFTFTYYAMGWYRQEPGKERELVAAISDGGASTYYSDSVKGRFTISRDNAKNTVYLQMNSLKPEDTAVYYCAAETYWPWKDDYWGQGTQVTVSS	high polyreactivity
QVQLVESGGGLVQAGDSLRLSCAASGLTFSAYVMGWYRQAPGKERELVAATSRRGGTTYYADSVKGRFTISRDNAKITVYLQMNSLKPEDTAVYYCGTDYTSGSSYHVGYCGQGTQVTVSS	high polyreactivity
QVQLVESGGGLVQAGDSLRLSCAASGRIFKRNTMGWYRQAPGKERELVAAITRSGGSTYYADSVKGRFTISRDNAMNNVYLQMNSLKPEDTAVYYCNAPQYIGSVPIGDYWGLGTQVTVSS	high polyreactivity
QVQLVESGGGLVQAGDSLRLSCAASGSIFAWKTKGWYRQAPGTERELVAAISSGDSTYYADSVKGRFTISRDNAKNPVYLQMNSLKPEDTAVYYCAATYYQDRRRGYWGQGTQVTVSS	high polyreactivity
QVQLVESGGGLVQAGGCLRLSCAASGRISSSYAMGWYRLAAGKERELVAAITSRGGSTYYADSVKGRFTISRDNAKNTVYLQMNSLKPEDTAVYYCNAPGYLTYDHSYDYWGQGTQVTVSS	low polyreactivity
QVQLVESGGGLVQAGGCLRLSCAASGSTFPIYDMGWYRQAPGKERELVAAITYSGGSTNYADSVKRRFTNSRDNAKTSVYFQMNSLKPDDTAVYYCAARYTAYIQSGMGYWGQGSQVTVSS	high polyreactivity
QVQLVESGGGLVQAGGCLRLSCAASGSTFRGNAMGWYRQAPGKERELVAAITYSGGSTDYADSVKGRFTISRDNAKNTVYLQMNSLKPDDTAVYYCAARWYYYPLLYDYWGQGTQVTVSS	low polyreactivity
QVQLVESGGGLVQAGGCLRLSCAASGSTLDSNAMGWYREAPGKERELVAGIDWCGGSTYADSVKGRFTISRDNAKNTVELQMTSLKPEDTAVYYCAKVSRYVQPYSRFDYWGQGTQVTVSS	low polyreactivity
QVQLVESGGGLVQAGGCLRLSCADSGGTFGPYAMGWYIQAPGKEREFVARITGSGTRTYYADSVKGRFTISGDNAKNNVYLQMNSLNPEDTAVYYCATSHSRGSRGHDYWGQGTQVTVSS	low polyreactivity
QVQLVESGGGLVQAGGGLRLSFPASGRTFTVNAMGWSRQSPGKERELVATITYGGGSRYYADSVKGRFTISRDNAKNSVYLQMNSLKPEDTAVYYCAARSDNYHVYYFKRWGKYYSWGQGTQVTVSS	low polyreactivity
